Test results taken from patent US20250188194A1, “Method of treatment” (Nucleus Therapeutics Pty Ltd, priority 2021, published 2025).

Columns and labels:
Type in all cases: cell-based, human
[1] = system: PLB-985 cells; test: Cellular penetration assay; conditions: PLB-985 cells in culture, 5 μM DX1 for one hour
Protocol: FIG. 1. DX1 penetrates PLB-985 cells. Cells treated with control or 5 μM DX1 for one hour were washed, fixed, and immunostained to detect DX1. […] Dark stain represents alkaline phosphatase-based detection of signal. Bar: 25 μm.
Work with isolated mouse or human neutrophils is challenging due to their short functional lifespans, and granulocyte-differentiated HL-60 and their subclone PLB-985 human acute myeloid leukemia cells provide a reliable alternative to isolated neutrophils for NETosis studies. The nuclear-penetrating anti-DNA autoantibody 3E10 and its derivative DX1 require expression of the nucleoside transporter ENT2 in order to penetrate target cells. ENT2 expression in HL-60 cells has previously been reported, and DX1 was confirmed to penetrate into ˜100% of PLB-985 cells in culture (FIG. 1).
PLB-985 cells cultured on Shi-fix coverslips (Shikhar Biotech, Khumaltar, Lalitpur, Nepal) were treated for one hour with control media or media containing 5 μM DX1 and then washed and fixed in 100% chilled ethanol. Presence of DX1 in the cells was evaluated by incubation with Pierce™ Recombinant Protein L (1:1000) (#21189, Thermo Fisher Scientific), protein L polyclonal antibody (1:1000) (#PA1-72066, Thermo Fisher Scientific), and goat anti-chicken IgY (H+L) alkaline phosphatase secondary antibody (1:1000) (#PA1-28799, Thermo Fisher Scientific). […]

[2] = system: differentiated PLB-985 cells; test: Quantifying extracellular DNA by SYTOX Green stain after PMA stimulation; conditions: one hour pre-treatment with 10 μM DX1, 300 nM PMA two hours, plate reader; N=3
Protocol: FIGS. 2A-2D. DAPI and SYTOX™ Green stains support the conclusion that DX1inhibits chromatin decondensation and DNA release by differentiated PLB-985 cells stimulated with PMA. (2A) Chromatin decondensation in differentiated PLB-985 cells after stimulation with PMA±a one hour pre-treatment with 10 μM DX1 was visualized by DAPI stain. Left panel: Control cells with decondensed DAPI stain after PMA stimulation. Right panel: DX1-treated cells retaining condensed DAPI signal after PMA stimulation. Bar: 25 μm. (2B) Quantification of the percentage of differentiated PLB-985 cells with decondensed DAPI stain after PMA stimulation. […] (2C) DNA release by differentiated PLB-985 cells after stimulation with PMA±a one hour pre-treatment with 10 μM DX1 was visualized by addition of the impermeant DNA stain SYTOX™ Green. Representative images are shown. Bar: 25 μm. (2D) SYTOX™ Green signal in wells containing differentiated PLB-985 cells stimulated with PMA±a one hour pre-treatment with 10 […] was quantified by plate reader. […]
SYTOX™ Green is an impermeant fluorescent DNA stain that facilitates visualization of DNA released in NETosis. Differentiated PLB-985 cells treated with control or 10 μM DX1 and stimulated with PMA were exposed to SYTOX™ Green, and fluorescence was visualized under fluorescence microscopy and quantified by plate reader. […]

[3] = system: differentiated PLB-985 cells; test: Quantifying DNA released (adherent NET-DNA) after PMA stimulation by spectrophotometry; conditions: 10 μM DX1 one hour, 300 nM PMA four hours; PMA control 4.50±0.14; N=3
Protocol: The results of the DAPI and SYTOX™ Green staining studies in FIG. 2C, 2D are consistent with DX1-mediated inhibition of chromatin decondensation and DNA release by differentiated PLB-985 cells. To further probe this effect, DNA-protein release was measured by differentiated PLB-985 cells after PMA stimulation by resuspending and quantifying DNA-protein complexes adherent to wells by spectrophotometry using a previously described protocol for isolation and quantification of NET-DNA in cell culture. This assay is based on the concept that intact cells for the most part remain in suspension, while DNA-protein complexes released in NETs are at least partially adhered to wells. This distinction allows for separation of intact cells from adherent NET-DNA by aspiration of the cell culture supernatants, followed by resuspension of adherent DNA-protein complexes and quantification by spectrophotometry.
Next, the ability of this assay to detect the effect of a known NETosis inhibitor on DNA release by differentiated PLB-985 cells stimulated by PMA was verified. […] Differentiated PLB-985 cells were treated with 0-50 μM of GSK484 for one hour prior to stimulation with PMA, followed by quantification of adherent DNA by spectrophotometry. […]

B1: DX1: 3E10 derivative, a di-scFv having the sequence SEQ ID NO: 38; nuclear-penetrating anti-DNA binding protein (protein)
scFv: DIQMTQSPSSLSASLGDRATITCRASKTVSTSSYSYMHWYQQKPGQPPKLLIKYASYLESGVPSRFSGSGSGTDFTLTISSLQPEDAATYYCQHSREFPWTFGGGTKVEIKTVDAAPGGGGSGGGGSGGGGSEVQLVESGGGLVQPGGSLRLSCAASGFTFSNYGMHWVRQAPGKGLEWVSYISSGSSTIYYADSVKGRFTISRDNAKNSLYLQMNSLRAEDTAVYYCARRGLLLDYWGQGTTVTVSSASTKGPSVFPLAPLESTGSDIQMTQSPSSLSASLGDRATITCRASKTVSTSSYSYMHWYQQKPGQPPKLLIKYASYLESGVPSRFSGSGSGTDFTLTISSLQPEDAATYYCQHSREFPWTFGGGTKVEIKTVDAAPGGGGSGGGGSGGGGSEVQLVESGGGLVQPGGSLRLSCAASGFTFSNYGMHWVRQAPGKGLEWVSYISSGSSTIYYADSVKGRFTISRDNAKNSLYLQMNSLRAEDTAVYYCARRGLLLDYWGQGTTVTVSS
modifications: DX1 sequence
cells penetrated by DX1 [1]: ~100%
SYTOX Green signal relative to control [2]: 0.40±0.01
released/adherent DNA content relative to unstimulated control cells [3]: 1.80±0.11
